Test results reported in paper PMC9482650, “Quantitative fragmentomics allow affinity mapping of interactomes” (Nature Communications, 2022).

T1: DLG3_2, Q92796
T1 sequence (Q92796 221-321, limits assumed, looked up): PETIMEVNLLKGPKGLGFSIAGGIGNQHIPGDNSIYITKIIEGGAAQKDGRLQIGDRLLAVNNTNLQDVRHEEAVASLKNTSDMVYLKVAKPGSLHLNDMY

T2: HTRA4, P83105
T2 sequence (P83105 378-476, limits assumed, looked up): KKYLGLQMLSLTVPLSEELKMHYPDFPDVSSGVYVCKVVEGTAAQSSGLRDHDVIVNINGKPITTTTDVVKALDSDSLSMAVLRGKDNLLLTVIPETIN

T3: LIN7A, O14910
T3 sequence (O14910 103-200, limits assumed, looked up): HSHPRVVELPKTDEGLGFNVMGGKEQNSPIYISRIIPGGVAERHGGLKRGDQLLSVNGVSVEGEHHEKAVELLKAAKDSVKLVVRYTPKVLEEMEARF

T4: MPP7, Q5T2T1
T4 sequence (Q5T2T1 134-230, limits assumed, looked up): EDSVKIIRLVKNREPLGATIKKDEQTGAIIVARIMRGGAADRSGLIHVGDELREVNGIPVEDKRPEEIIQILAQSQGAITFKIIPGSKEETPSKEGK

T5: NHERF3_4, Q5T2W1
T5 sequence (Q5T2W1 373-468, limits assumed, looked up): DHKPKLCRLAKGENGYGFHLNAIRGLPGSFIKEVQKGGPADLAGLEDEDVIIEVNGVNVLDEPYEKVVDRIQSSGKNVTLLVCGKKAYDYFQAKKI

T6: PARD3B_1, Q8TEW8
T6 sequence (Q8TEW8 196-299, limits assumed, looked up): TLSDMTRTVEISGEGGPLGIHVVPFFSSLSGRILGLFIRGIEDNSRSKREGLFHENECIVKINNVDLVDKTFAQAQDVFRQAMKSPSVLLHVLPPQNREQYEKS

T7: PDZRN3_1, Q9UPQ7
T7 sequence (Q9UPQ7 244-349, limits assumed, looked up): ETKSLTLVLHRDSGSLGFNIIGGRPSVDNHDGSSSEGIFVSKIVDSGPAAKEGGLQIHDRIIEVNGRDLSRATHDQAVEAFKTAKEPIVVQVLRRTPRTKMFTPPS

T8: RAPGEF6, Q8TEU7
T8 sequence (Q8TEU7 525-625, limits assumed, looked up): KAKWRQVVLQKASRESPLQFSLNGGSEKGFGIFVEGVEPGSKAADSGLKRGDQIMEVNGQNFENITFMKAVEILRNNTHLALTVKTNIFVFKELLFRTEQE

T9: SNTG1, Q9NSN8
T9 sequence (Q9NSN8 52-150, limits assumed, looked up): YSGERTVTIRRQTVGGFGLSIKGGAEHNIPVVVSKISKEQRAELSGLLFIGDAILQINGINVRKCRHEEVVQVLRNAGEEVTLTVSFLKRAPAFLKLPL

T10: SNTG2, Q9NY99
T10 sequence (Q9NY99 68-166, limits assumed, looked up): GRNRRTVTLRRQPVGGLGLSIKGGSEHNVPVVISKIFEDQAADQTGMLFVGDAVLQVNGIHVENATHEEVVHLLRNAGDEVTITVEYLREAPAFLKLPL


What was measured:
Assay in all cases: holdup assay
Set-up in all cases: key: below the threshold = too weak to quantify, mostly under pKd 3.1 to 4
Conditions in all cases: plain residues with an end cap or a label only (N-terminal biotin on a linker: ttds)
DLG3_2, Q92796 = target: T1, DLG3_2, Q92796
DLG4_1, P78352 = target: DLG4_1, P78352
Chain of DLG4_1, P78352 (P78352 62-152): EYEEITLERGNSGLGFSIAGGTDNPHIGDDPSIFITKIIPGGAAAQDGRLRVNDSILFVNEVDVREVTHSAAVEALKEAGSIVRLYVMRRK

FRMPD4, Q14CM0 = target: FRMPD4, Q14CM0
Chain of FRMPD4, Q14CM0 (Q14CM0 67-160): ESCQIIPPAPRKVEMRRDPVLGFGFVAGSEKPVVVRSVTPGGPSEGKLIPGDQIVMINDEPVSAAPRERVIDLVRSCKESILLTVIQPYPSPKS

GRIP2_7, Q9C0E4 = target: GRIP2_7, Q9C0E4
Chain of GRIP2_7, Q9C0E4 (Q9C0E4 934-1023): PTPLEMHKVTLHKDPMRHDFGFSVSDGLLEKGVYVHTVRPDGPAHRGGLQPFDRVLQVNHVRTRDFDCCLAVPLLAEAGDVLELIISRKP

HTRA1, Q92743 = target: HTRA1, Q92743
Chain of HTRA1, Q92743 (Q92743 360-477): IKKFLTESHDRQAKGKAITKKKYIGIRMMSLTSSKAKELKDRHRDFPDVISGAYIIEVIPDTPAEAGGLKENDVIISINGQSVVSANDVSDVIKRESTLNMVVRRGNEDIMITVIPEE

HTRA4, P83105 = target: T2, HTRA4, P83105
IL16_3, Q14005 = target: IL16_3, Q14005
Chain of IL16_3, Q14005 (Q14005 1107-1207): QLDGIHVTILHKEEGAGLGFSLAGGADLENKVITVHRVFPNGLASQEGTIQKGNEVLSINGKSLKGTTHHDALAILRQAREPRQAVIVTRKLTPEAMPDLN

Inadl_3, Q8NI35 = target: Inadl_3, Q8NI35
Chain of Inadl_3, Q8NI35 (Q8NI35 359-469): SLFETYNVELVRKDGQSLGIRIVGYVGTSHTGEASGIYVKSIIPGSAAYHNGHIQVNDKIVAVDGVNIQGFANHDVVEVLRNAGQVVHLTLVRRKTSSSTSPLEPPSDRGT

Inadl_9, Q8NI35 = target: Inadl_9, Q8NI35
Chain of Inadl_9, Q8NI35 (Q8NI35 1530-1615): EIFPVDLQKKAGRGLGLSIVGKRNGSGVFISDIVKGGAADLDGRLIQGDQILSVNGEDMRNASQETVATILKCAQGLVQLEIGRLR

LIMK2, P53671 = target: LIMK2, P53671
Chain of LIMK2, P53671 (P53671 143-248): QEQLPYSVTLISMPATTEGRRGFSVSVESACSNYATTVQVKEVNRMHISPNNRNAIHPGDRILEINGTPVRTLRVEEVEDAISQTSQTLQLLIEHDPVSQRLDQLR

LIN7A, O14910 = target: T3, LIN7A, O14910
LNX1_1, Q8TBB1 = target: LNX1_1, Q8TBB1
Chain of LNX1_1, Q8TBB1 (Q8TBB1 261-371): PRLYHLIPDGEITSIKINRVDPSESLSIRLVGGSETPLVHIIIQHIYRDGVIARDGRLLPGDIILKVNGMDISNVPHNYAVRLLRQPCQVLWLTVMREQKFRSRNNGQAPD

MAGI1_2, Q96QZ7 = target: MAGI1_2, Q96QZ7
Chain of MAGI1_2, Q96QZ7 (Q96QZ7 456-580): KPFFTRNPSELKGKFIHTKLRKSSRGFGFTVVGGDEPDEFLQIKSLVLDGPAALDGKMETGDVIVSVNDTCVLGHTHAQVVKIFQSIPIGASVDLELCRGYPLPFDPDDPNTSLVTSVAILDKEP

MAGI2_3, Q86UL8 = target: MAGI2_3, Q86UL8
Chain of MAGI2_3, Q86UL8 (Q86UL8 600-682): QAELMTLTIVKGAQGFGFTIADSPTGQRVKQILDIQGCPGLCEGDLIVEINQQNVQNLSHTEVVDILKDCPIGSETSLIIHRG

MAGI2_5, Q86UL8 = target: MAGI2_5, Q86UL8
Chain of MAGI2_5, Q86UL8 (Q86UL8 915-1017): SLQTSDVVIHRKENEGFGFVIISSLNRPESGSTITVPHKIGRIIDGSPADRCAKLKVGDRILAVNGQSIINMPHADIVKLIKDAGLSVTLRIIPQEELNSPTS

MAST1, Q9Y2H9 = target: MAST1, Q9Y2H9
Chain of MAST1, Q9Y2H9 (Q9Y2H9 962-1065): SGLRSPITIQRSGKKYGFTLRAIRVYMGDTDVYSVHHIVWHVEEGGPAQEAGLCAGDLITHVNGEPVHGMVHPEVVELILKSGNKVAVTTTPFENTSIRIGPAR

MPP7, Q5T2T1 = target: T4, MPP7, Q5T2T1
NHERF2_2, Q15599 = target: NHERF2_2, Q15599
Chain of NHERF2_2, Q15599 (Q15599 142-238): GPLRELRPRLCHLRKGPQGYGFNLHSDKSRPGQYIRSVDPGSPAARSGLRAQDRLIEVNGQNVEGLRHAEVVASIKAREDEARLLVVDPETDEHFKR

NHERF3_4, Q5T2W1 = target: T5, NHERF3_4, Q5T2W1
NHERF4_2, Q86UT5 = target: NHERF4_2, Q86UT5
Chain of NHERF4_2, Q86UT5 (Q86UT5 220-308): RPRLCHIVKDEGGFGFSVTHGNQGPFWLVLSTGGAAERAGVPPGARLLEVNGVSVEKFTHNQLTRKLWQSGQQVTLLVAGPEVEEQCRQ

PARD3B_1, Q8TEW8 = target: T6, PARD3B_1, Q8TEW8
PDZRN3_1, Q9UPQ7 = target: T7, PDZRN3_1, Q9UPQ7
PICK1, Q9NRD5 = target: PICK1, Q9NRD5
Chain of PICK1, Q9NRD5 (Q9NRD5 17-115): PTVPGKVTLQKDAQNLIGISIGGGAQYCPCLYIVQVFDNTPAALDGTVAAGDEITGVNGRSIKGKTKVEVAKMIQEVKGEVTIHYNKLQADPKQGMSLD

RAPGEF6, Q8TEU7 = target: T8, RAPGEF6, Q8TEU7
SCRIB_3, Q14160 = target: SCRIB_3, Q14160
Chain of SCRIB_3, Q14160 (Q14160 999-1103): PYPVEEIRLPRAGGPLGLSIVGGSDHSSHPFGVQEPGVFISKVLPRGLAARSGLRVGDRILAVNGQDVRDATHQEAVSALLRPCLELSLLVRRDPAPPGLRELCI

SNTG1, Q9NSN8 = target: T9, SNTG1, Q9NSN8
SNTG2, Q9NY99 = target: T10, SNTG2, Q9NY99

Binder | pKd (DLG3_2, Q92796) | pKd (DLG4_1, P78352) | pKd (FRMPD4, Q14CM0) | pKd (GRIP2_7, Q9C0E4) | pKd (HTRA1, Q92743) | pKd (HTRA4, P83105) | pKd (IL16_3, Q14005) | pKd (Inadl_3, Q8NI35) | pKd (Inadl_9, Q8NI35) | pKd (LIMK2, P53671) | pKd (LIN7A, O14910) | pKd (LNX1_1, Q8TBB1) | pKd (MAGI1_2, Q96QZ7) | pKd (MAGI2_3, Q86UL8) | pKd (MAGI2_5, Q86UL8) | pKd (MAST1, Q9Y2H9) | pKd (MPP7, Q5T2T1) | pKd (NHERF2_2, Q15599) | pKd (NHERF3_4, Q5T2W1) | pKd (NHERF4_2, Q86UT5) | other results
PVRVCEETSL [OTULIN, Q96BN8] | 4.35 | 4.11 | 4.59 | 3.66 | 4.04 | below the threshold | below the threshold | 3.66 | below the threshold | below the threshold | 3.47 | below the threshold | 4.01 | below the threshold | 4.13 | 5.3 | below the threshold | 5.21 | below the threshold | below the threshold | pKd (PARD3B_1, Q8TEW8): 4.09; pKd (PDZRN3_1, Q9UPQ7): 4.99; pKd (PICK1, Q9NRD5): below the threshold; pKd (RAPGEF6, Q8TEU7): below the threshold; pKd (SCRIB_3, Q14160): 5.64; pKd (SNTG1, Q9NSN8): 4.28; pKd (SNTG2, Q9NY99): 4.63
SGSRPSATVV [HPV73-E6, Q82005] | 4.11 | 3.97 | below the threshold | 3.56 | 3.9 | 3.86 | below the threshold | below the threshold | 3.59 | below the threshold | below the threshold | 3.74 | 4.15 | 3.62 | 3.7 | 3.73 | below the threshold | below the threshold | 3.6 | below the threshold | pKd (PARD3B_1, Q8TEW8): below the threshold; pKd (PDZRN3_1, Q9UPQ7): below the threshold; pKd (PICK1, Q9NRD5): 3.63; pKd (RAPGEF6, Q8TEU7): 3.57; pKd (SCRIB_3, Q14160): below the threshold; pKd (SNTG1, Q9NSN8): 3.6; pKd (SNTG2, Q9NY99): below the threshold
